Experiments:
Assay type in all cases: physicochemical
[1] = Appearance of solution (bulk or reconstituted), visual; conditions: 4 mg/mL bulk solution
Experimental: (§1) The bulk solution appearance, pH, density and BT5528 assay/related substances were recorded. Additional samples were subjected to three freeze (−20° C.)/thaw cycles, assessing appearance, pH, UPLC and sub-visible particulates (MFI) after each cycle.
(§2) The lyophilized product was placed on stability and tested for 1 month (according to Table 1-9) at accelerated storage of 25° C./60% RH. The lyophilized product was assessed by means of appearance, moisture content, and assay and related substances by UPLC. The reconstituted product was assessed on the basis of reconstitution time, solution appearance, pH and sub-visible particulates (T=0 only).

[2] = pH of bulk or reconstituted solution; conditions: 4 mg/mL bulk solution
Experimental: as §1, §2

[3] = Reconstitution time of lyophilized product; conditions: 21.2 mg/vial reconstituted with 5.3 mL 0.02 M HCl, versus 0.01 M HCl
Experimental: as §2
Formulations 1 to 4 had significant adsorptive properties with the drug product adsorbing onto the glass vial above and in the reconstituted solution. Formulation 5 (2 mg/mL BT5528) produced the best results with drug product adsorbing only slightly above the solution and no adsorption noted within the solution. Variability in reconstitution time derives from the analytical procedure deviating throughout the testing of formulation 1. This occurred due to the severe adsorptive nature of formulation 1. For the 4 mg/mL solution agitation occurred immediately after addition of reconstitution medium producing a severe adsorptive spread above the solution. A settle period before agitation was performed for the 2 mg/mL producing a better reconstitution performance although adsorption was still noted. For the 1.3 mg/mL solution a settle period of 5 minutes was performed to minimize the agitation required. […]

[4] = Density of final solution; conditions: filtered 4 mg/mL solution
Experimental: as §1
The pH of the solution was measured and adjusted to target (pH 6.8-7.2). The pH was 7.79 pH after the addition of API and was adjusted to 7.19 pH using 0.1 M HCl solution. The solution was transferred to a 20 mL volumetric flask and make to final volume with WFI. The solution was filtered through a single 0.22 μm, PES membrane syringe filter. The final solution was a clear, colourless solution which was free from any visible particulates. The density of the final solution was measured, 1.025 g/cm^3. A pre- and post-filtration sample was passed to analytical for HPLC analysis. The remaining bulk solution was filled in 2 mL volumes into 2 mL glass vials and subjected to three, freeze/thaw cycles.

BT5528: Bicycle toxin conjugate; TATA scaffold; peptide ligand (β-Ala)-Sar10-A(HArg)D-Ci(HyP)LVNPLCiiLHP(D-Asp)W(HArg)Ciii (SEQ ID NO: 1)
Appearance ([1]; Freeze Thaw Cycle 1 (−20° C.)): Clear, colourless solution free | Appearance ([1]; Freeze Thaw Cycle 2): Clear, colourless solution free | Appearance ([1]; Freeze Thaw Cycle 3): Clear, colourless solution free | Appearance ([1]; Post Filtration): Clear, colourless solution free | Appearance ([1]; Pre Filtration): Clear, colourless solution free | pH ([2]; Freeze Thaw Cycle 1): 7.3 | pH ([2]; Freeze Thaw Cycle 2): 7.3 | pH ([2]; Freeze Thaw Cycle 3): 7.3 | pH ([2]; Pre Filtration): 7.2 | reconstitution time and appearance of the reconstituted product (oily droplet formation) [3]: improved | density of the final solution [4]: 1.025 g/mL
